The values below come from patent US20200291391A1, “CROSS-LINKED EPITOPES AND METHODS OF USE THEREOF” (Indi Molecular, Inc., priority 2019, published 2020).

A word on the EC50: it is the concentration at which the effect is half-maximal. Low readings indicate a more potent agent, high ones a less potent agent.

The assay has as its target human CD8α/β (human), P01732. The assay is described as follows: ELISA on CD8αβ. In general terms: ELISA stands for enzyme-linked immunosorbent assay.

Chain of human CD8α/β (human), P01732 (P01732 22-182, chain 1 of 2): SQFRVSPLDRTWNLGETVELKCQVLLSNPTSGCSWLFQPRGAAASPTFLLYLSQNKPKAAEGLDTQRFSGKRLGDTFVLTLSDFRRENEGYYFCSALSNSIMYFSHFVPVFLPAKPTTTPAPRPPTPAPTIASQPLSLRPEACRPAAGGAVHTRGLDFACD
Chain of human CD8α/β (human), P01732 (P10966 22-170, chain 2 of 2, further chain): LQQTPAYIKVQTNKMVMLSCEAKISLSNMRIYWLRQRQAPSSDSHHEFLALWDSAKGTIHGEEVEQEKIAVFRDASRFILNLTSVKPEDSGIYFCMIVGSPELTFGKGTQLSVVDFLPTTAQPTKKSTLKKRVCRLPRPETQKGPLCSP

As to KHYTN (modifications not checked) [khytn (SEQ ID NO:82)], the EC50 was 6 µM.
